Measurements as given in article PMC3842668, “Dual-acting stapled peptides target both HIV-1 entry and assembly” (Retrovirology, 2013).
Where no end group is shown, it is not given here.

Columns and labels:
NYAD-36 = experiment: ITC; settings: both partners purified
NYAD-67 = experiment: ITC; settings: both partners purified

## CTRPNYNKRKRIHIGPGRAFYTTKNIIGTIRQAHC (also: cyclic (mode not given here)) [full-length cyclic V3 loop peptide]
NYAD-36
  Kd: 350 ± 30 nM
NYAD-67
  Kd: 990 ± 40 nM
